Measured values reported in US20150246949A1, “Desmoglein 2 (DSG2) Binding Proteins and Uses Therefor” (UNIVERSITY OF WASHINGTON THROUGH ITS CENTER FOR …, priority 2012, published 2015).
Numbering of substitutions follows the chain as printed. Entries after “also recorded” stand apart in the source; their conditions may differ.

B1: JO-1: recombinant protein with the Ad3 fiber knob and a domain for self-dimerization of trimeric knobs (SEQ ID NO:27) (protein)
chain: MKVSALKEKVSALKEKVSALKEKVSALKEKVSALKEGSGGGSGGGSGGGSNSIALKNNTLWTGPKPEANCIIEYGKQNPDSKLTLILVKNGGIVNGYVTLMGASDYVNTLFKNKNVSINVELYFDATGHILPDSSSLKTDLELKYKQTADFSARGFMPSTTAYPFVLPNAGTHNENYIFGQCYYKASDGALFPLEVTVMLNKRLPDSRTSYVMTFLWSLNAGLAPETTQATLITSPFTFSYIREDD
B2: JO-4 (protein)
chain: B1 chain with Y177F

What was measured:
ovc316 xenograft tumors = assay: Enhancement of PLD therapy in ovc316 ovarian cancer xenograft model; assay type: in vivo, CB17 mice; details: weekly
Method: FIG. 10. Combination of affinity-enhanced JO-1 versions with chemotherapy. A) Enhancement of irinotecan (I) therapy. The experimental setting was the same as in FIG. 5B. […] N=5. […] Mammary fat pad tumors were established from primary ovarian cancer ovc316 cells. Treatment was started when tumors reached a volume of 100 mm^3 Mice were injected intravenously with 2 mg/kg JO-1 or with 0.5 mg/kg JO-4, followed by an intravenous injection of PEGylated liposomal doxorubicin (PLD) (1 mg/kg) one hour later. Treatment was repeated weekly. […] A total of 4×10^6 TNBC MDA-MB-231 cells were injected into the mammary fat pad of CB17 SCID-beige mice. JO-4 (2 mg/kg) was intravenously injected 1 hour before the application of cetuximab (C) (10 mg/kg, i.p.) and nab-paclitaxel (nab-P) (5 mg/kg, i.v). Treatment was given weekly. N=10 P<0.01 at day 25 for nab-P+C vs JO-4+nab-P+C.
A549, MDA-MB-231, and ovc316 xenograft tumors were established by injection of the corresponding tumor cells into the mammary fat pad (1:1 with Matrigel) of CB17 mice. TC1-DSG2 tumors were established by subcutaneous injection of TC1-DSG2 cells into DSG2 transgenic mice. […] Tumor volumes were measured three times a week. […]

[1] = Blood chemistry and blood cell counts after i.v. injection; assay type: in vivo, hDSG2 transgenic mice; details: for Blood chemistry / Blood cell counts: after i.v. injection; for Blood cell counts: N=3; for Time of nadir of lymphocyte and platelet counts: p.i.
Method: (§1) FIG. 11. Pharmacokinetics, toxicity, and immunogenicity of JO-4. A) Serum clearance of JO-1 and JO-4. hDSG2 transgenic mice with subcutaneous TC1-hDSG2 tumors (˜600 mm^3) were intravenously injected with JO-1 or JO-4 (2 mg/kg) and serum samples were analyzed for by ELISA. N=3. Note that the y-axis has a log scale. B) Lymphocyte and platelet counts in hDSG2/TC1-hDSG2 transgenic mice after JO-1 or JO-4 injection. N=3. C) Therapy studies in immunocompetent hDSG2 transgenic mice with TC1-hDSG2 tumors. When tumors reached a volume of ˜80 mm^3, JO-1 or JO-4 (2 mg/kg) or PBS was injected intravenously followed one hour later by PLD/Doxil (i.v. 1.5 mg/kg). Treatment was repeated as indicated by arrows. Tumors were then allowed to re-grow for about two weeks. From day 15 on serum anti-JO-1/J)-4 antibodies were detectable by ELISA. Two more treatment cycles were performed at day 28 and day 35. […] The difference between JO-1/PLD vs JO-4/PLD is significant from day 31 on. N=10.
Two of the affinity enhanced version of JO-1, Y293D and V250F were analyzed in in vivo assay. We called these mutants JO-2 and JO-4, respectively. The first study was performed in a xenograft model derived from A549 cells similar to the study described for FIG. 5B. […] Additional studies were performed in xenograft tumors derived from ovc316 cells (30, 32). Ovc316 cells are Her2/neu positive epithelial tumor cells derived from an ovarian cancer biopsy. These cells can undergo EMT and the reverse process, mesenchymal-to-epithelial-transition (MET), under specific conditions in vitro and in vivo. A subfraction of ovc316 cells that is positive for Nanog, CD133, and E-cadherin is enriched for cancer stem cells, i.e. self-renewing cells with pluripotent potential and tumor forming ability (30). Ovc316 cells therefore closely model the heterogeneity and plasticity seen in tumors in situ. […] Finally, we tested JO-4 in a model for triple-negative breast cancer (TNBC). TNBC is characterized by a lack or minimal expression of estrogen receptor (ER), progesterone receptor (PR) and the absence of Her2/neu overexpression. TNBC accounts for 15% of all breast cancers. Overall survival is poor compared with that in patients who have other phenotypes. A characteristic feature of TNBC is high levels of DSG2 and epithelial junctions. Promising clinical results in the treatment of TNBS have been achieved with nanoparticle, albumin-conjugated paclitaxel (nab-paclitaxel/Abraxane™) alone or in combination with the EGFR-targeting mAb cetuximab/Erbitux™ (38). […] Because of its therapeutic relevance, we further studied JO-4 in an adequate mouse tumor model. […] These mice were subcutaneously implanted with syngeneic TC1-hDSG tumors. When tumors reached a volume of ˜600 mm^3, JO-1 or JO-4 was intravenously injected for safety and efficacy studies. […] After one hour post-injection JO-1 and JO-4 concentration reached a plateau with ˜100 ng/ml. We also analyzed hematological parameters after i.v. JO-1 and JO-4 injection.

TC1-hDSG2 tumors = assay: Repeated-cycle PLD therapy study in immunocompetent mice with TC1-hDSG2 tumors; assay type: in vivo, hDSG2 transgenic mice; details: 2 mg/kg i.v. one hour before PLD/Doxil 1.5 mg/kg i.v.; 3rd and 4th cycles days 28 and 35; N=10
Method: as §1
A549, MDA-MB-231, and ovc316 xenograft tumors were established by injection of the corresponding tumor cells into the mammary fat pad (1:1 with Matrigel) of CB17 mice. […] Tumor volumes were measured three times a week. […]
JO-1 and JO-4 are virus-derived proteins and immunogenic. In immunocompetent mice, serum IgG antibodies against these proteins can be detected by ELISA two weeks after injection (5). […]

Molecule | Enhancement of PLD therapy (ovc316 xenograft tumors; 2 mg/kg i.v. one hour before PLD 1 mg/kg i.v.) | Blood chemistry [1] | Blood cell counts [1] | Time of nadir of lymphocyte and platelet counts [1] | Enhancing effect on PLD therapy over repeated treatment cycles (TC1-hDSG2 tumors) | Enhancement of PLD therapy (ovc316 xenograft tumors; 0.5 mg/kg i.v. one hour before PLD 1 mg/kg i.v.) | Lymphocyte and platelet counts compared with JO-1 ([1]; nadir at 24 hours p.i. and recovery)
B1 | significantly increased the treatment efficiency | did not show abnormal changes | normal except for lymphocyte and platelet number, which decreased early after injection | 24 h | enhancing effect on PLD therapy; also recorded: continued to be effective after multiple treatment cycles |  | 
B2 |  | did not show abnormal changes | normal except for lymphocyte and platelet number, which decreased early after injection | 24 h | enhancing effect on PLD therapy; also recorded: significantly stronger; also recorded: continued to be effective after multiple treatment cycles | even greater stimulating effect on PLD therapy; also recorded: enhances PLD therapy in an ovarian cancer model at lower dose than JO-1 | significantly lower numbers; also recorded: returned to normal levels faster
